Results taken from article PMC4661386.

Target: CUB_C (CUB module and C-terminal peptide from human TSG-6), wild type (human) (UniProt P98066)
Experiment: SPR; CUB_C (WT or E183S) amine-coupled to a CM5 chip (~1000 RU); rHC1 (WT or D298A) injected at 30 ul/min in 20 mM HEPES, 150 mM NaCl, 0.05% Tween 20, pH 7.4 (HBS-T), no EDTA (as purified CUB_C contains Ca2+); multicycle kinetics, 1:1 Langmuir model

B1: Recombinant human heavy chain 1 (rHC1) of inter-alpha-inhibitor, wild type (natural protein)
chain: SKSSEKRQAVDTAVDGVFIRSLKVNCKVTSRFAHYVVTSQVVNTANEAREVAFDLEIPKTAFISDFAVTADGNAFIGDIKDKVTAWKQYRKAAISGENAGLVRASGRTMEQFTIHLTVNPQSKVTFQLTYEEVLKRNHMQYEIVIKVKPKQLVHHFEIDVDIFEPQGISKLDAQASFLPKELAAQTIKKSFSGKKGHVLFRPTVSQQQSCPTCSTSLLNGHFKVTYDVSRDKICDLLVANNHFAHFFAPQNLTNMNKNVVFVIDISGSMRGQKVKQTKEALLKILGDMQPGDYFDLVLFGTRVQSWKGSLVQASEANLQAAQDFVRGFSLDEATNLNGGLLRGIEILNQVQESLPELSNHASILIMLTDGDPTEGVTDRSQILKNVRNAIRGRFPLYNLGFGHNVDFNFLEVMSMENNGRAQRIYEDHDATQQLQGFYSQVAKPLLVDVDLQYPQDAVLALTQNHHKQYYEGSEIVVAGRIADNKQSSFKADVQAHGEGQEFSITCLVDEEEMKKLLRERGHMLENHVERLWAYLTIQELLAKRMKVDREERANLSSQALQMSLDYGFVTPLTSMSIRGMADQDGLKPTIDKPSEDSPPLEMLGPRRTFVLSALQPSPTHSSSNTQRLPDRVTGVDTD
**Q.** B1 was tested. Which Kd did it give?
**A.** 2.1 nM
